T1: human tapasin, lumenal domain (Gly1-Glu381), as used in the SPR experiments with the PaSta Fabs (Homo sapiens (human))
T1 construct: human tapasin, lumenal domain, residues Gly1 to Glu381; the construct encodes the signal peptide too, the protein is secreted; for the SPR with the Fabs nothing is said; also called TPN; source: Drosophila S2 cells, purified from culture medium (chelate agarose, SEC, anion exchange)
T1 chain: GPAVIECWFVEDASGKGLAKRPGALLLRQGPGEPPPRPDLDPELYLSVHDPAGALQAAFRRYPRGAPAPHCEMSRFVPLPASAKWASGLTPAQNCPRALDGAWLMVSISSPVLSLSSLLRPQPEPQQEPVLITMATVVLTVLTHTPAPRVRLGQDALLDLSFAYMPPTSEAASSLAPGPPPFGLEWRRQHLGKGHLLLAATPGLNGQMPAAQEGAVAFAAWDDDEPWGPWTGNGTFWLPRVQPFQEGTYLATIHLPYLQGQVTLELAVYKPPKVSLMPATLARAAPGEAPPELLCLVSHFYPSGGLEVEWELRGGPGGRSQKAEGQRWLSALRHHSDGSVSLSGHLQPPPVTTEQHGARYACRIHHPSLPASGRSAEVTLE

B1: PaSta1 Fab (anti-tapasin monoclonal antibody PaSta1) (Fab, V domains shown)
VH: DVQLQESGPGLVIPSQSLSLTCTVTGYSITTDYAWNWIRQFPGNRLEWMGYISSSGVTVYNPSLKSRISITRDTSKNQFFLQLISVTTEDTATYYCARRGYYRYDSIDYWGQGTTLTVSS
VL: QIVLSQSPAILSASPGEKVTMTCRATSSVSYIHWYQQKPGSSPKPWIYATSSLTSGVPVRFSGSGSGTSYSLTISRVEAEDAATYYCQQWSSNPPTFGGGTKLEIK
notes: heavy chain of the Fab in PDB 7TUF (ends after the second cysteine of the hinge, then His6); light chain of the Fab in PDB 7TUF; also called Pt1; Pt1H; source: Expi293F, transfected, purified from culture supernatant (TALON, SEC)
B2: PaSta2 Fab (anti-tapasin monoclonal antibody PaSta2) (Fab, V domains shown)
VH: QVQLQQSGAELVRPGTSVKMSCKAAGYTFTNYWIGWIKQRPGHGLEWIGDIYPGGGYTNYNEKFKVKATLTADTSSVTAYMQLSSLTSEDSAIYYCTREGNYGFAYWGQGTLVTVSA
VL: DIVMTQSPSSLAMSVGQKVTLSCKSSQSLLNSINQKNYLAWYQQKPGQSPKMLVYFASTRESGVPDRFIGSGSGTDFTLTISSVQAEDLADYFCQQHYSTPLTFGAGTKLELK
notes: heavy chain of the Fab in PDB 7TUG and 7TUH (ends after the second cysteine of the hinge, then His6); light chain of the Fab in PDB 7TUG and 7TUH; also called Pt2; Pt2H; source: Expi293F, transfected, purified from culture supernatant (TALON, SEC)
B3: Fab fragment of the anti-tapasin monoclonal antibody PaSta1 (Fab, V domains shown)
VH: DVQLQESGPGLVIPSQSLSLTCTVTGYSITTDYAWNWIRQFPGNRLEWMGYISSSGVTVYNPSLKSRISITRDTSKNQFFLQLISVTTEDTATYYCARRGYYRYDSIDYWGQGTTLTVSS
VL: QIVLSQSPAILSASPGEKVTMTCRATSSVSYIHWYQQKPGSSPKPWIYATSSLTSGVPVRFSGSGSGTSYSLTISRVEAEDAATYYCQQWSSNPPTFGGGTKLEIK
notes: H chain of PaSta1 in PDB 7TUF (deposited here); the Fab H chain ends after the second cysteine in the hinge region, followed by the 6X HIS tag; L chain of PaSta1 in PDB 7TUF (deposited here); The L chain search model had VL and Cκ; also called PaSta1 (Fab); Pt1; source: Expi293F cells, transfected, purified from culture supernatants (TALON, SEC)
B4: Fab fragment of the anti-tapasin monoclonal antibody PaSta2 (Fab, V domains shown)
VH: QVQLQQSGAELVRPGTSVKMSCKAAGYTFTNYWIGWIKQRPGHGLEWIGDIYPGGGYTNYNEKFKVKATLTADTSSVTAYMQLSSLTSEDSAIYYCTREGNYGFAYWGQGTLVTVSA
VL: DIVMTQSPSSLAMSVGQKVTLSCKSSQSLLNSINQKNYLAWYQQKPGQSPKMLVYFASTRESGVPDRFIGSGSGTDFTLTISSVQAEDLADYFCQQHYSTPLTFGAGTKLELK
notes: H chain of PaSta2 in PDB 7TUG and 7TUH (deposited here); the Fab H chain ends after the second cysteine in the hinge region, followed by the 6X HIS tag; L chain of PaSta2 in PDB 7TUG and 7TUH (deposited here); also called PaSta2 (Fab); Pt2; source: Expi293F cells, transfected, purified from culture supernatants (TALON, SEC)
B5: human tapasin lumenal domain (Gly1-Glu381), biotinylated at its C-terminal BirA sequence (domain or fragment, UniProt O15533 21-401, looked up)
chain: GPAVIECWFVEDASGKGLAKRPGALLLRQGPGEPPPRPDLDPELYLSVHDPAGALQAAFRRYPRGAPAPHCEMSRFVPLPASAKWASGLTPAQNCPRALDGAWLMVSISSPVLSLSSLLRPQPEPQQEPVLITMATVVLTVLTHTPAPRVRLGQDALLDLSFAYMPPTSEAASSLAPGPPPFGLEWRRQHLGKGHLLLAATPGLNGQMPAAQEGAVAFAAWDDDEPWGPWTGNGTFWLPTVQPFQEGTYLATIHLPYLQGQVTLELAVYKPPKVSLMPATLARAAPGEAPPELLCLVSHFYPSGGLEVEWELRGGPGGRSQKAEGQRWLSALRHHSDGSVSLSGHLQPPPVTTEQHGARYACRIHHPSLPASGRSAEVTLE
modifications: biotin at the C-terminal BirA sequence
notes: Tapasin as captured on the streptavidin chip for SPR; also called biotinylated tapasin; source: Drosophila S2 cells, purified from the culture media (chelate agarose, SEC, anion exchange)

Tests used:
Conditions in all cases: both partners purified
[1] = target: T1, human tapasin, lumenal domain …; assay: SPR; PaSta2 Fab (panel c) or PaSta1 Fab (panel d) immobilised on a CM5 chip, tapasin captured on it, the other Fab injected at 62.5 to 4000 nM; fit to a 1:1 binding model (BiaEval 3.1); 25 °C, 10 mM HEPES pH 7.4, 150 mM NaCl, 3 mM EDTA, 0.05% Surfactant P20, 30 µL/min
[2] = target: T2, human tapasin lumenal domain (Gly1-Glu381), state of the C-terminal tags not stated (human, UniProt O15533); assay: SPR; Fab of PaSta1 or PaSta2 covalently coupled onto CM5 chips (about 200 RU); tapasin 0.06 µM to 4 µM injected; 25 °C; 10 mM HEPES pH 7.4, 150 mM NaCl, 3 mM EDTA, 0.05% Surfactant P20; 30 µL/min; 1:1 binding model
T2 construct: Tapasin as injected over the Fab surfaces in SPR and as added in the NMR experiments; source: Drosophila S2 cells, purified from the culture media (chelate agarose, SEC, anion exchange)

[3] = target: T3, human tapasin lumenal domain (Gly1-Glu381), BirA and 6X His sequences removed with 3C protease (human, UniProt O15533); assay: crystal structure; tapasin–PaSta1 Fab complex, PDB 7TUF, 2.8 Å; crystals grown in 10% PEG 4000, 0.1 M Hepes, pH 7.5
T3 construct: Residues of the 3C site may remain at the C-terminus after cleavage; source: Drosophila S2 cells, purified from the culture media (chelate agarose, SEC, anion exchange), treated with 3C protease; not shown: 6X HIS, C-terminal, cleaved

[4] = target: T3, human tapasin lumenal domain …; assay: crystal structure; tapasin–PaSta2 Fab complex, PDB 7TUG, 3.9 Å; crystals grown in 17% PEG 10000, 0.1 M Bis-Tris, pH 5.5, 0.1 M Am acetate
[5] = target: parental HLA-B*44:05 refolded with hβ2m and the peptide … (human | ); assay: SPR; biotinylated tapasin captured (200 RU) on a streptavidin chip; MHC-I offered in graded concentrations (15.6 nM to 500 nM for B44:02–9mer and B44:05-T73C–6mer, 1 µM to 16 µM for B44:05–9mer); 25 °C; 10 mM HEPES pH 7.4, 150 mM NaCl, 3 mM EDTA, 0.05% Surfactant P20; 30 µL/min; global fit to a 1:1 binding model; n = 3

Row | Binder | Kd [1] | binding result [2] | other results
1 | B1 | 1.1 nM |  | 
2 | B2 | 1.6 nM |  | 
3 | B3 |  | binds | binding result [3]: binds
4 | B4 |  | binds | binding result [4]: binds
5 | B5 |  |  | Kd [5]: 1310 nM
